Measured values as given in article PMC10629212, “Active Site Loop Engineering Abolishes Water Capture in Hydroxylating Sesquiterpene Synthases” (ACS Catalysis, 2023).
Positions count from the first letter of the chain named. Names may count otherwise.

B1: PTS (patchoulol synthase) (Pogostemon cablin; E461S/K458R/K459R/R460G) (protein)
chain: MELYAQSVGVGAASRPLANFHPCVWGDKFIVYNPQSCQAGEREEAEELKVELKRELKEASDNYMRQLKMVDAIQRLGIDYLFVEDVDEALKNLFEMFDAFCKNNHDMHATALSFRLLRQHGYRVSCEVFEKFKDGKDGFKVPNEDGAVAVLEFFEATHLRVHGEDVLDNAFDFTRNYLESVYATLNDPTAKQVHNALNEFSFRRGLPRVEARKYISIYEQYASHHKGLLKLAKLDFNLVQALHRRELSEDSRWWKTLQVPTKLSFVRDRLVESYFWASGSYFEPNYSVARMILAKGLAVLSLMDDVYDAYGTFEELQMFTDAIERWDASCLDKLPDYMKIVYKALLDVFEEVDEELIKLGAPYRAYYGKEAMKYAARAYMEEAQWREQKHKPTTKEYMKLATKTCGYITLIILSCLGVEEGIVTKEAFDWVFSRPPFIEATLIIARLVNDITGHEFERRGSHVRTAVECYMEEHKVGKQEVVSEFYNQMESAWKDINEGFLRPVEFPIPLLYLILNSVRTLEVIYKEGDSYTHVGPAMQNIIKQLYLHPVPY
notes: recombinant purified; construct details only in Supporting Information
B2: PTS (patchoulol synthase) (Pogostemon cablin) (protein)
chain: B1 chain with R458K, R459K, G460R, S461E
notes: as for B1
B3: PTS (patchoulol synthase) (Pogostemon cablin; Y525A) (protein)
chain: B1 chain with R458K, R459K, G460R, S461E, Y525A
notes: as for B1
B4: PTS (patchoulol synthase) (Pogostemon cablin; Y525F) (protein)
chain: B1 chain with R458K, R459K, G460R, S461E, Y525F
notes: as for B1
B5: PTS (patchoulol synthase) (Pogostemon cablin; C405A) (protein)
chain: B1 chain with C405A, R458K, R459K, G460R, S461E
notes: as for B1
B6: PTS (patchoulol synthase) (Pogostemon cablin; Y531F) (protein)
chain: B1 chain with R458K, R459K, G460R, S461E, Y531F
notes: as for B1
B7: Gd11olS (germacradiene-11-ol synthase) (Streptomyces coelicolor A3(2)) (protein)
chain: MTQQPFQLPHFYLPHPARLNPHLDEARAHSTTWAREMGMLEGSGVWEQSDLEAHDYGLLCAYTHPDCDGPALSLITDWYVWVFFFDDHFLEKYKRSQDRLAGKAHLDRLPLFMPLDDAAGMPEPRNPVEAGLADLWTRTVPAMSADWRRRFAVATEHLLNESMWELSNINEGRVANPVEYIEMRRKVGGAPWSAGLVEYATAEVPAAVAGTRPLRVLMETFSDAVHLRNDLFSYQREVEDEGELSNGVLVLETFFGCTTQEAADLVNDVLTSRLHQFEHTAFTEVPAVALEKGLTPLEVAAVGAYTKGLQDWQSGGHEWHMRSSRYMNKGERPLAGWQ
notes: likely N-terminal germacradienol synthase domain of the bifunctional geosmin synthase (as in PDB 5DZ2); recombinant purified
B8: Gd11olS (germacradiene-11-ol synthase) (Streptomyces coelicolor A3(2); D240G/E239R/E241S/V238R) (protein)
chain: B7 chain with V238R, E239R, D240G, E241S
notes: as for B7

These proteins were tested on CC(C)=CCC/C(C)=C/CC/C(C)=C/CO[P@@](=O)(O)OP(=O)(O)O (assay: steady-state kinetics of sesquiterpene formation (details in Supporting Information)). Details: Mg2+-dependent enzyme; conditions in Supporting Information.
Format: biochemical, Pogostemon cablin
Text: steady-state kinetics of sesquiterpene formation (details in Supporting Information) on PTS (patchoulol synthase)

**Q.** For B1, which Km is on record?
**A.** The Km was 1.54 ± 0.16 µM.

**Q.** For B2, which Km is on record?
**A.** The Km was 0.68 ± 0.14 µM.

**Q.** B3 was tested. Which Km did it give?
**A.** Its Km is 5.27 ± 1.22 µM.

**Q.** For B4, which Km is on record?
**A.** The Km was 4.8 ± 1.26 µM.

**Q.** B5 was tested. Which Km did it give?
**A.** The Km was 0.67 ± 0.09 µM.

**Q.** With B6 as the protein, how does the Km read?
**A.** Its Km is 0.37 ± 0.09 µM.

Substrate: CC(C)=CCC/C(C)=C/CC/C(C)=C/CO[P@@](=O)(O)OP(=O)(O)O
Test: as above
Format: biochemical, Streptomyces coelicolor
Details: Mg2+-dependent enzyme; conditions in Supporting Information
Remark: another data set of the same source
Text: steady-state kinetics of sesquiterpene formation (details in Supporting Information) on Gd11olS (germacradiene-11-ol synthase)

**Q.** B7 was tested. Which Km did it give?
**A.** The Km was 0.45 ± 0.08 µM.

**Q.** With B8 as the protein, how does the Km read?
**A.** Its Km is 6.02 ± 1.25 µM.
